T1: human GFRAL (UniProtKB-Q6UXVO) (human, UniProt Q6UXV0 19-394)
T1 sequence (looked up): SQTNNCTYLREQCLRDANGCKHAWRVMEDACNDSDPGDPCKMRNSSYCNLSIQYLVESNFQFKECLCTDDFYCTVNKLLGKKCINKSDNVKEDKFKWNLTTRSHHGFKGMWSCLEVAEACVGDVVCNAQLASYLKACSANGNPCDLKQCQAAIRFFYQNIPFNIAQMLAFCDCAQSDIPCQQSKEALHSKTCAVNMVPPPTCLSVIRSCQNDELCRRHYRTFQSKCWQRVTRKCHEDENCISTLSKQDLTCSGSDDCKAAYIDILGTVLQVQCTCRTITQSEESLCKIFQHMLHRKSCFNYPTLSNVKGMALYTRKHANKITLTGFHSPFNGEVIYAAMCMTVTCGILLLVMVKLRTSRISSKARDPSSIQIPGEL

B1: Fc-GDF15 fusion protein M9 (Fc fusion)
chain: APEAAGGPSVFLFPPKPKDTLMISRTPEVTCVVVDVSQEDPEVQFNWYVDGVEVHNAKTKPREEQFNSTYRVVSVLTVLHQDWLNGKEYKCKVSNKGLPSSIEKTISKAKGQPREPQVYTLPPSQREMTKNQVSLTCLVKGFYPSDIAVEWESNGQPENNYKTTPPVLDSDGSFFLYSRLTVDKSRWQEGNVFSCSVMHEALHNHYTQKSLSLSLGGGGGSGGGGSAPAPAPAPAPAPAPAPAPAPGGGGSGGGGSDHCPLGPGRCCRLHTVRASLEDLGWADWVLSPREVQVTMCIGACPSQFRAANMHAQIKTSLHRLKPDTVPAPCCVPASYNPMVLIQKTDTGVSLQTYDDLLAKDCHCI
B2: Fc-GDF15 fusion protein M25 (Fc fusion)
chain: APEAAGGPSVFLFPPKPKDTLMISRTPEVTCVVVDVSQEDPEVQFNWYVDGVEVHNAKTKPREEQFNSTYRVVSVLTVLHQDWLNGKEYKCKVSNKGLPSSIEKTISKAKGQPREPQVYTLPPSQEEMTKNQVSLTCLVKGFYPSDIAVEWESNGQPENNYKTTPPVLDSDGSFFLYSRLTVDKSRWQEGNVFSCSVMHEALHNHYTQESLSLSLGGGGGSGGGGSAPAPAPAPAPAPAPAPAPAPGGGGSGGGGSDHCPLGPGRCCRLHTVHASLEDLGWADWVLSPREVQVTMCIGACPSQFRAANMHAQIKTSLHRLKPDTVPAPCCVPASYNPMVLIQKTDTGVSLQTYDDLLAKDCHCI
B3: Fc-GDF15 fusion protein M11 (Fc fusion)
chain: APEAAGGPSVFLFPPKPKDTLMISRTPEVTCVVVDVSQEDPEVQFNWYVDGVEVHNAKTKPREEQFNSTYRVVSVLTVLHQDWLNGKEYKCKVSNKGLPSSIEKTISKAKGQPREPQVYTLPPSQAEMTKNQVSLTCLVKGFYPSDIAVEWESNGQPENNYKTTPPVLDSDGSFFLYSRLTVDKSRWQEGNVFSCSVMHEALHNHYTQKSLSLSLGGGGGSGGGGSAPAPAPAPAPAPAPAPAPAPGGGGSGGGGSDHCPLGPGRCCRLHTVRASLEDLGWADWVLSPREVQVTMCIGACPSQFRAANMHAQIKTSLHRLKPDTVPAPCCVPASYNPMVLIQKTDTGVSLQTYDDLLAKDCHCI
B4: Fc-GDF15 fusion protein M26 (Fc fusion)
chain: APEAAGGPSVFLFPPKPKDTLMISRTPEVTCVVVDVSQEDPEVQFNWYVDGVEVHNAKTKPREEQFNSTYRVVSVLTVLHQDWLNGKEYKCKVSNKGLPSSIEKTISKAKGQPREPQVYTLPPSQEEMTKNQVSLTCLVKGFYPSDIAVEWESNGQPENNYKTTPPVLDSDGSFFLYSRLTVDKSRWQEGNVFSCSVMHEALHNHYTQESLSLSLGGGGGSGGGGSAPAPAPAPAPAPAPAPAPAPGGGGSGGGGSDHCPLGPGRCCRLHTVRASLEELGWADWVLSPREVQVTMCIGACPSQFRAANMHAQIKTSLHRLKPDTVPAPCCVPASYNPMVLIQKTDTGVSLQTYDDLLAKDCHCI
B5: Fc-GDF15 fusion protein M20 (Fc fusion)
chain: APEAAGGPSVFLFPPKPKDTLMISRTPEVTCVVVDVSQEDPEVQFNWYVDGVEVHNAKTKPREEQFNSTYRVVSVLTVLHQDWLNGKEYKCKVSNKGLPSSIEKTISKAKGQPREPQVYTLPPSQEEMTKNQVSLTCLVKGFYPSDIAVEWESNGQPENNYKTTPPVLDSDGSFFLYSRLTVDKSRWQEGNVFSCSVMHEALHNHYTQESLSLSLGGGGGSGGGGSAPAPAPAPAPAPAPAPAPAPGGGGSGGGGSEHCPLGPGRCCRLHTVRASLEDLGWADWVLSPREVQVTMCIGACPSQFRAANMHAQIKTSLHRLKPDTVPAPCCVPASYNPMVLIQKTDTGVSLQTYDDLLAKDCHCI
B6: Fc-GDF15 fusion protein M10 (Fc fusion)
chain: APEAAGGPSVFLFPPKPKDTLMISRTPEVTCVVVDVSQEDPEVQFNWYVDGVEVHNAKTKPREEQFNSTYRVVSVLTVLHQDWLNGKEYKCKVSNKGLPSSIEKTISKAKGQPREPQVYTLPPSQQEMTKNQVSLTCLVKGFYPSDIAVEWESNGQPENNYKTTPPVLDSDGSFFLYSRLTVDKSRWQEGNVFSCSVMHEALHNHYTQKSLSLSLGGGGGSGGGGSAPAPAPAPAPAPAPAPAPAPGGGGSGGGGSDHCPLGPGRCCRLHTVRASLEDLGWADWVLSPREVQVTMCIGACPSQFRAANMHAQIKTSLHRLKPDTVPAPCCVPASYNPMVLIQKTDTGVSLQTYDDLLAKDCHCI
B7: Fc-GDF15 fusion protein M27 (Fc fusion)
chain: APEAAGGPSVFLFPPKPKDTLMISRTPEVTCVVVDVSQEDPEVQFNWYVDGVEVHNAKTKPREEQFNSTYRVVSVLTVLHQDWLNGKEYKCKVSNKGLPSSIEKTISKAKGQPREPQVYTLPPSQEEMTKNQVSLTCLVKGFYPSDIAVEWESNGQPENNYKTTPPVLDSDGSFFLYSRLTVDKSRWQEGNVFSCSVMHEALHNHYTQESLSLSLGGGGGSGGGGSAPAPAPAPAPAPAPAPAPAPGGGGSGGGGSDHCPLGPGRCCRLHTVRASLEELGWADWVLSPREVQVTMCIGACPSQFRAANMHAQIKTSLHRLRPDTVPAPCCVPASYNPMVLIQKTDTGVSLQTYDDLLAKDCHCI
B8: Fc-GDF15 fusion protein M24 (Fc fusion)
chain: APEAAGGPSVFLFPPKPKDTLMISRTPEVTCVVVDVSQEDPEVQFNWYVDGVEVHNAKTKPREEQFNSTYRVVSVLTVLHQDWLNGKEYKCKVSNKGLPSSIEKTISKAKGQPREPQVYTLPPSQEEMTKNQVSLTCLVKGFYPSDIAVEWESNGQPENNYKTTPPVLDSDGSFFLYSRLTVDKSRWQEGNVFSCSVMHEALHNHYTQESLSLSLGGGGGSGGGGSAPAPAPAPAPAPAPAPAPAPGGGGSGGGGSDHCPLGPGRCCRLHTVQASLEDLGWADWVLSPREVQVTMCIGACPSQFRAANMHAQIKTSLHRLKPDTVPAPCCVPASYNPMVLIQKTDTGVSLQTYDDLLAKDCHCI
B9: Fc-GDF15 fusion protein M22 (Fc fusion)
chain: APEAAGGPSVFLFPPKPKDTLMISRTPEVTCVVVDVSQEDPEVQFNWYVDGVEVHNAKTKPREEQFNSTYRVVSVLTVLHQDWLNGKEYKCKVSNKGLPSSIEKTISKAKGQPREPQVYTLPPSQEEMTKNQVSLTCLVKGFYPSDIAVEWESNGQPENNYKTTPPVLDSDGSFFLYSRLTVDKSRWQEGNVFSCSVMHEALHNHYTQESLSLSLGGGGGSGGGGSAPAPAPAPAPAPAPAPAPAPGGGGSGGGGSDECPLGPGRCCRLHTVRASLEDLGWADWVLSPREVQVTMCIGACPSQFRAANMHAQIKTSLHRLKPDTVPAPCCVPASYNPMVLIQKTDTGVSLQTYDDLLAKDCHCI
B10: Fc-GDF15 fusion protein M21 (Fc fusion)
chain: APEAAGGPSVFLFPPKPKDTLMISRTPEVTCVVVDVSQEDPEVQFNWYVDGVEVHNAKTKPREEQFNSTYRVVSVLTVLHQDWLNGKEYKCKVSNKGLPSSIEKTISKAKGQPREPQVYTLPPSQEEMTKNQVSLTCLVKGFYPSDIAVEWESNGQPENNYKTTPPVLDSDGSFFLYSRLTVDKSRWQEGNVFSCSVMHEALHNHYTQESLSLSLGGGGGSGGGGSAPAPAPAPAPAPAPAPAPAPGGGGSGGGGSDCPLGPGRCCRLHTVRASLEDLGWADWVLSPREVQVTMCIGACPSQFRAANMHAQIKTSLHRLKPDTVPAPCCVPASYNPMVLIQKTDTGVSLQTYDDLLAKDCHCI
B11: Fc-GDF15 fusion protein M23 (Fc fusion)
chain: APEAAGGPSVFLFPPKPKDTLMISRTPEVTCVVVDVSQEDPEVQFNWYVDGVEVHNAKTKPREEQFNSTYRVVSVLTVLHQDWLNGKEYKCKVSNKGLPSSIEKTISKAKGQPREPQVYTLPPSQEEMTKNQVSLTCLVKGFYPSDIAVEWESNGQPENNYKTTPPVLDSDGSFFLYSRLTVDKSRWQEGNVFSCSVMHEALHNHYTQESLSLSLGGGGGSGGGGSAPAPAPAPAPAPAPAPAPAPGGGGSGGGGSECPLGPGRCCRLHTVRASLEDLGWADWVLSPREVQVTMCIGACPSQFRAANMHAQIKTSLHRLKPDTVPAPCCVPASYNPMVLIQKTDTGVSLQTYDDLLAKDCHCI
B12: Fc-GDF15 fusion protein M2 (Fc fusion)
chain: APEAAGGPSVFLFPPKPKDTLMISRTPEVTCVVVDVSQEDPEVQFNWYVDGVEVHNAKTKPREEQFNSTYRVVSVLTVLHQDWLNGKEYKCKVSNKGLPSSIEKTISKAKGQPREPQVYTLPPSQEEMTKNQVSLTCLVKGFYPSDIAVEWESNGQPENNYKTTPPVLDSDGSFFLYSRLTVDKSRWQEGNVFSCSVMHEALHNHYTQESLSLSLGGGGGSGGGGSAPAPAPAPAPAPAPAPAPAPGGGGSGGGGSARNGDHCPLGPGRCCRLHTVRASLEDLGWADWVLSPREVQVTMCIGACPSQFRAANMHAQIKTSLHRLKPDTVPAPCCVPASYNPMVLIQKTDTGVSLQTYDDLLAKDCHCI
B13: Fc-GDF15 fusion protein M13 (Fc fusion)
chain: EAAGGPSVFLFPPKPKDTLMISRTPEVTCVVVDVSQEDPEVQFNWYVDGVEVHNAKTKPREEQFNSTYRVVSVLTVLHQDWLNGKEYKCKVSNKGLPSSIEKTISKAKGQPREPQVYTLPPSQEEMTKNQVSLTCLVKGFYPSDIAVEWESNGQPENNYKTTPPVLDSDGSFFLYSRLTVDKSRWQEGNVFSCSVMHEALHNHYTQESLSLSLGGGGGSGGGGSAPAPAPAPAPAPAPAPAPAPGGGGSGGGGSDHCPLGPGRCCRLHTVRASLEDLGWADWVLSPREVQVTMCIGACPSQFRAANMHAQIKTSLHRLKPDTVPAPCCVPASYNPMVLIQKTDTGVSLQTYDDLLAKDCHCI
B14: natural GDF15 (ACROBiosystems, GD5-H5149) (ligand)
chain: ARNGDHCPLGPGRCCRLHTVRASLEDLGWADWVLSPREVQVTMCIGACPSQFRAANMHAQIKTSLHRLKPDTVPAPCCVPASYNPMVLIQKTDTGVSLQTYDDLLAKDCHCI

Biological target: T1, human GFRAL (UniProtKB-Q6UXVO)
Assay: cell-based or functional assay

**Q.** For B1, which “Relative activity ratio (native GDF15 EC50: Fc-GDF15 construct EC50), ERK1/2 phosphorylation HTRF in HEK293T cells expressing human GFRAL and RET” value (“Relative activity ratio” below) is on record?
**A.** The value was 1.33 ratio.

**Q.** B2 was tested. Which “Relative activity ratio” value did it give?
**A.** The value was 4.76 ratio.

**Q.** With B3 as the binder, how does the “Relative activity ratio” value read?
**A.** Its value is 2.02 ratio.

**Q.** With B4 as the binder, how does the “Relative activity ratio” value read?
**A.** Its value is 2.91 ratio.

**Q.** For B5, which “Relative activity ratio” value is on record?
**A.** The value was 3.08 ratio.

**Q.** Which “Relative activity ratio” value does the source give for B6 here?
**A.** The value was 1.62 ratio.

**Q.** For B7, which “Relative activity ratio” value is on record?
**A.** Its value is 2.66 ratio.

**Q.** How did the “Relative activity ratio” value turn out when B8 was run?
**A.** The value was 2.65 ratio.

**Q.** How did the “Relative activity ratio” value turn out when B9 was run?
**A.** Its value is 1.42 ratio.

**Q.** B10 was tested. Which “Relative activity ratio” value did it give?
**A.** Its value is 3.87 ratio.

**Q.** For B11, which “Relative activity ratio” value is on record?
**A.** Its value is 3.38 ratio.

**Q.** How did the “Relative activity ratio” value turn out when B12 was run?
**A.** The value was 3.27 ratio.

**Q.** How did the “Relative activity ratio” value turn out when B13 was run?
**A.** Its value is 1.89 ratio.

**Q.** For B14, which “Relative activity ratio” value is on record?
**A.** Its value is 1 ratio.
